We go through seven molecules from article PMC5344210.

Data set [1] addresses UL141-GPI (GPI-anchored ectodomain of HCMV UL141, FIX strain) (human cytomegalovirus (FIX strain)) (UniProt Q6RJQ3). In words: flow cytometry on cells. In general terms: A flow cytometer gives signals particle by particle.
Data set [2] is described as follows: anti-TRAIL-R1 immunofluorescence after His-hTRAIL, reconstituted DKO cells. Conditions: glycan lost; control: TRAIL-R1 WT.
Data set [3] can be described thus: DISC immunoprecipitation and immunoblot, U2OS. As to conditions: glycan lost; control: TRAIL-R1 WT. In general terms: Immunoblotting shows a protein as a band on a membrane.
Data set [4] can be described thus: immunofluorescence of receptor clustering after TRAIL, U2OS. Conditions: glycan lost; control: TRAIL-R1 WT.
A short description of data set [5]: DISC immunoprecipitation and immunoblot, reconstituted DKO cells. Conditions: glycan lost; control: TRAIL-R1 WT.
Data set [6] can be described thus: surface flow cytometry with MD5-1, B16. As to conditions: glycan lost; control: WT mTRAIL-R.
The nature of data set [7]: receptor clustering upon ligand binding, B16 and U2OS. Conditions: glycan lost; control: WT mTRAIL-R.
The next data set in a line: receptor internalization. Conditions: glycan lost; control: WT mTRAIL-R.

Sequence of UniProt Q6RJQ3 (Q6RJQ3 37-278): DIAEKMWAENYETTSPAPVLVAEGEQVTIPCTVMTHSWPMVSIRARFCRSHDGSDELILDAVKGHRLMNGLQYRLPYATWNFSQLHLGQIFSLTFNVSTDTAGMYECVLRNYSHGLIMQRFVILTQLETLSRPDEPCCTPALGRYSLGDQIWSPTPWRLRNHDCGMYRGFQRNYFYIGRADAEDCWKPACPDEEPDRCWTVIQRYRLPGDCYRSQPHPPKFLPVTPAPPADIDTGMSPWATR

As for “TRAIL-R1-Fc N156A (N-glycosylation-deficient human TRAIL-R1 fused to human Fc IgG1) (from UniProt O00220 24-239) (Fc fusion)”, the fold higher binding affinity than glycosylated TRAIL-R1 in data set [1] turned out to be 5 fold. Turning to TRAIL-R1: N156A, the oligomerisation entry in data set [2] and in data set [4] was “decreases” throughout. Moreover, the “other: DISC formation (caspase-8/-10 recruitment)” value in data set [3] and in data set [5] was “decreases” each time.

B1: mTRAIL-R (mouse TRAIL receptor): N99A (protein)
parent chain: MEPPGPSTPTASAAARADHYTPGLRPLPKRRLLYSFALLLAVLQAVFVPVTANPAHNRPAGLQRPEESPSRGPCLAGQYLSEGNCKPCREGIDYTSHSNHSLDSCILCTVCKEDKVVETRCNITTNTVCRCKPGTFEDKDSPEICQSCSNCTDGEEELTSCTPRENRKCVSKTAWASWHKLGLWIGLLVPVVLLIGALLVWKTGAWRQWLLCIKRGCERDPESANSVHSSLLDRQTSSTTNDSNHNTEPGKTQKTGKKLLVPVNGNDSADDLKFIFEYCSDIVPFDSWNRLMRQLGLTDNQIQMVKAETLVTREALYQMLLKWRHQTGRSASINHLLDALEAVEERDAMEKIEDYAVKSGRFTYQNAAAQPETGPGGSQCV
In the case of B1, the expression_or_secretion result in data set [6] was “no change”.

B2: mTRAIL-R (mouse TRAIL receptor): N99/122/150A (protein)
parent chain: MEPPGPSTPTASAAARADHYTPGLRPLPKRRLLYSFALLLAVLQAVFVPVTANPAHNRPAGLQRPEESPSRGPCLAGQYLSEGNCKPCREGIDYTSHSNHSLDSCILCTVCKEDKVVETRCNITTNTVCRCKPGTFEDKDSPEICQSCSNCTDGEEELTSCTPRENRKCVSKTAWASWHKLGLWIGLLVPVVLLIGALLVWKTGAWRQWLLCIKRGCERDPESANSVHSSLLDRQTSSTTNDSNHNTEPGKTQKTGKKLLVPVNGNDSADDLKFIFEYCSDIVPFDSWNRLMRQLGLTDNQIQMVKAETLVTREALYQMLLKWRHQTGRSASINHLLDALEAVEERDAMEKIEDYAVKSGRFTYQNAAAQPETGPGGSQCV
On to B2, for which the oligomerisation entry in data set [7] is “decreases”. Also, the expression_or_secretion result in data set [6] is reported as “decreases”.

B3: mTRAIL-R (mouse TRAIL receptor): N99/122A (protein)
parent chain: MEPPGPSTPTASAAARADHYTPGLRPLPKRRLLYSFALLLAVLQAVFVPVTANPAHNRPAGLQRPEESPSRGPCLAGQYLSEGNCKPCREGIDYTSHSNHSLDSCILCTVCKEDKVVETRCNITTNTVCRCKPGTFEDKDSPEICQSCSNCTDGEEELTSCTPRENRKCVSKTAWASWHKLGLWIGLLVPVVLLIGALLVWKTGAWRQWLLCIKRGCERDPESANSVHSSLLDRQTSSTTNDSNHNTEPGKTQKTGKKLLVPVNGNDSADDLKFIFEYCSDIVPFDSWNRLMRQLGLTDNQIQMVKAETLVTREALYQMLLKWRHQTGRSASINHLLDALEAVEERDAMEKIEDYAVKSGRFTYQNAAAQPETGPGGSQCV
On to B3, for which the localisation_or_trafficking result in the data set “receptor internalization” is “increases”. In addition, the oligomerisation entry in data set [7] is given as “decreases”. In addition, in data set [6], the expression_or_secretion result was “no change”.

B4: mTRAIL-R (mouse TRAIL receptor): N99/150A (protein)
parent chain: MEPPGPSTPTASAAARADHYTPGLRPLPKRRLLYSFALLLAVLQAVFVPVTANPAHNRPAGLQRPEESPSRGPCLAGQYLSEGNCKPCREGIDYTSHSNHSLDSCILCTVCKEDKVVETRCNITTNTVCRCKPGTFEDKDSPEICQSCSNCTDGEEELTSCTPRENRKCVSKTAWASWHKLGLWIGLLVPVVLLIGALLVWKTGAWRQWLLCIKRGCERDPESANSVHSSLLDRQTSSTTNDSNHNTEPGKTQKTGKKLLVPVNGNDSADDLKFIFEYCSDIVPFDSWNRLMRQLGLTDNQIQMVKAETLVTREALYQMLLKWRHQTGRSASINHLLDALEAVEERDAMEKIEDYAVKSGRFTYQNAAAQPETGPGGSQCV
As to B4, in data set [6], the expression_or_secretion entry was “no change”.

B5: mTRAIL-R (mouse TRAIL receptor): N122/150A (protein)
parent chain: MEPPGPSTPTASAAARADHYTPGLRPLPKRRLLYSFALLLAVLQAVFVPVTANPAHNRPAGLQRPEESPSRGPCLAGQYLSEGNCKPCREGIDYTSHSNHSLDSCILCTVCKEDKVVETRCNITTNTVCRCKPGTFEDKDSPEICQSCSNCTDGEEELTSCTPRENRKCVSKTAWASWHKLGLWIGLLVPVVLLIGALLVWKTGAWRQWLLCIKRGCERDPESANSVHSSLLDRQTSSTTNDSNHNTEPGKTQKTGKKLLVPVNGNDSADDLKFIFEYCSDIVPFDSWNRLMRQLGLTDNQIQMVKAETLVTREALYQMLLKWRHQTGRSASINHLLDALEAVEERDAMEKIEDYAVKSGRFTYQNAAAQPETGPGGSQCV
As for B5, the expression_or_secretion result in data set [6] was “no change”.
